Reference: publication PMC10033409, “Autoregulation of GPCR signalling through the third intracellular loop” (Nature, 2023)

Tests used:
PTH1R–Gq peptide = assay: PTH1R-luciferase complementation reporter assay, Gq peptide; type: biochemical, human; settings: PTH1R construct named by the receptor or protein whose sequence replaces ICL3 (WT = wild-type); Y axis of Figure 5G
Protocol: For PTH1R luciferase complementation reporter assays, cells were seeded the day prior to transfection at 25-30% confluence on 12-well plates. For each transfection, 0.5 μg DNA, 1.5 μl X-tremeGENE HP, and 100 μl Opti-MEM were combined, incubated for 15-20 min, and added to seeded wells. For each mutant, PTH1R-Gs peptide, PTH1R-Gq peptide and PTH1R-(no peptide) constructs were transfected in parallel. Spep and Qpep constructs were transfected 24 h prior to collection, and no-peptide constructs were transfected 18 h before collection. […] Media in each well was used to gently shear and resuspend the cells by pipetting. The cell mixture was centrifuged (3 min, 300g) and the media was aspirated. Cell pellet was resuspended in 1 ml PBS and centrifuged again as above. […] Cellular debris was removed by centrifugation (1,000g for 1 min). To collect additional vesicles, debris was resuspended in 0.3 ml PBS, briefly vortexed, and centrifuged again (1,000g for 1 min). The ~0.9 ml of combined decanted supernatant was centrifuged one additional time (1,000g for 2 min) to better remove cellular debris. […] Vesicle samples were collected in a 96-well clear bottom plate and assayed for TagRFP fluorescence (Tecan Spark, excitation 521 nm, emission 585 nm, gain 150). For each set of constructs for a given […] ([…] control), samples were diluted to the lowest TagRFP counts. […] The plate was tapped 2-3 times to mix, and the kinetic read was resumed. Moving averages were computed for each kinetic trace (3-point averages for 5 min equilibration, 8-point moving averages post-drug treatment). Each kinetic trace was normalized to the last point of the pre-drug equilibration. The maximum luminescence value that appeared stable over time was used for further analysis. Specific Spep and Qpep signals were calculated by subtracting the control value from the Spep value and the Qpep value for a given experiment.

PTH1R–Gs peptide = assay: PTH1R-luciferase complementation reporter assay, Gs peptide; type: biochemical, human; settings: PTH1R construct named by the receptor or protein whose sequence replaces ICL3 (WT = wild-type); X axis of Figure 5G
Protocol: For PTH1R luciferase complementation reporter assays, cells were seeded the day prior to transfection at 25–30% confluence on 12-well plates. For each transfection, 0.5 µg DNA, 1.5 µl X-tremeGENE HP, and 100 µl Opti-MEM were combined, incubated for 15–20 min, and added to seeded wells. […] Spep and Qpep constructs were transfected 24 h prior to collection, and no-peptide constructs were transfected 18 h before collection.
Expressed PTH1R-luciferase complementation constructs were vesiculated as previously described, with modifications for smaller sample volume[25]. Media in each well was used to gently shear and resuspend the cells by pipetting. The cell mixture was centrifuged (3 min, 300g) and the media was aspirated. Cell pellet was resuspended in 1 ml PBS and centrifuged again as above. Cells were resuspended again in 0.6 ml vesiculation buffer (10 mM HEPES pH 7.4, 150 mM NaCl, 20 mM CaCl2, 2 µg ml^−1 aprotinin, 2 µg ml^−1 leupeptin, 2 mM N-ethylmaleimide) and incubated at 30 °C with shaking at 180 rpm for 2 h. Cellular debris was removed by centrifugation (1,000g for 1 min). To collect additional vesicles, debris was resuspended in 0.3 ml PBS, briefly vortexed, and centrifuged again (1,000g for 1 min). The ~0.9 ml of combined decanted supernatant was centrifuged one additional time (1,000g for 2 min) to better remove cellular debris. Vesicles were collected by centrifugation (3,200g for 40 min at 4 °C) and washed in 0.5 ml assay buffer. Centrifugation step was repeated, and vesicles were resuspended in 0.1 ml assay buffer.
45 µl of each sample was transferred to an opaque 96-well flat bottom plate. 45 µl of Nano-Glo Substrate (Promega N1110) diluted 1:50 in assay buffer was added to each well in the new plate. After tapping the plate to collect liquid at the bottom of the well, a kinetic luminescence read was started (500 ms integration, continuous for 40 min) and luminescence signal was tracked. […] The plate was tapped 2–3 times to mix, and the kinetic read was resumed. Moving averages were computed for each kinetic trace (3-point averages for 5 min equilibration, 8-point moving averages post-drug treatment). Each kinetic trace was normalized to the last point of the pre-drug equilibration. The maximum luminescence value that appeared stable over time was used for further analysis. Specific Spep and Qpep signals were calculated by subtracting the control value from the Spep value and the Qpep value for a given experiment.

[1] = molecular target: β2AR ICL3 FRET sensor, β2AR(L258Azi/Y350Azi/∆351–413) (Homo sapiens, UniProt P07550, L258F/Y350F); assay: Time-correlated single photon counting FRET assay, β2AR ICL3 FRET sensor (AZDye488/AZDye546); settings: in combination with isoproterenol
Protocol: Cell membranes were prepared following the procedure in ‘Crude cell membrane extracts’ through the first ultracentrifugation step (135,000g, 25 min, 4 °C). […] Solution was homogenized, first by passing through a 1 ml micropipette 10 times, then passing through a 20-gauge needle 10 times. To initiate the reaction, sodium ascorbate (50 mM) was added to the mixture and mixed by pipetting (2 ml final volume). Reactions were incubated with mild shaking (500 rpm) for 30 min at 25 °C.
For conditions without drug, peptide or nanobody, an equivalent volume of assay buffer was added. Reactions were equilibrated for 5 min prior to reading. […] Time-resolved fluorescence decay data were fit to the equation: Decay=α1e^−t/τ^1+α2e^−t/τ^2+α3e^−t/τ^3
Amplitude-weighted average lifetimes (τavg) were calculated from the three-exponential decay equation: τavg=(α1τ1+α2τ2+α3τ3)/(α1+α2+α3)
Each condition was performed in technical duplicate or triplicate, depending on sensor yield.

[2] = tested on: β2AR–Gs peptide FRET sensor; assay: ∆FRET assay, β2AR–Gs peptide SPASM FRET sensor

B1: CCK2 (protein, UniProt P32239 1-447, looked up)
Gastrin/cholecystokinin type …: MELLKLNRSVQGTGPGPGASLCRPGAPLLNSSSVGNLSCEPPRIRGAGTRELELAIRITLYAVIFLMSVGGNMLIIVVLGLSRRLRTVTNAFLLSLAVSDLLLAVACMPFTLLPNLMGTFIFGTVICKAVSYLMGVSVSVSTLSLVAIALERYSAICRPLQARVWQTRSHAARVIVATWLLSGLLMVPYPVYTVVQPVGPRVLQCVHRWPSARVRQTWSVLLLLLLFFIPGVVMAVAYGLISRELYLGLRFDGDSDSDSQSRVRNQGGLPGAVHQNGRCRPETGAVGEDSDGCYVQLPRSRPALELTALTAPGPGSGSRPTQAKLLAKKRVVRMLLVIVVLFFLCWLPVYSANTWRAFDGPGAHRALSGAPISFIHLLSYASACVNPLVYCFMHRRFRQACLETCARCCPRPPRARPRALPDEDPPTPSIASLSRLSYTTISTLGPG
Specific Peptide Signal, Gq (Average) (PTH1R–Gq peptide): 0.12 | Specific Peptide Signal, Gs (Average) (PTH1R–Gs peptide): 0.42

B2: CNR1 (protein, UniProt P21554 1-472, looked up)
Cannabinoid receptor 1: MKSILDGLADTTFRTITTDLLYVGSNDIQYEDIKGDMASKLGYFPQKFPLTSFRGSPFQEKMTAGDNPQLVPADQVNITEFYNKSLSSFKENEENIQCGENFMDIECFMVLNPSQQLAIAVLSLTLGTFTVLENLLVLCVILHSRSLRCRPSYHFIGSLAVADLLGSVIFVYSFIDFHVFHRKDSRNVFLFKLGGVTASFTASVGSLFLTAIDRYISIHRPLAYKRIVTRPKAVVAFCLMWTIAIVIAVLPLLGWNCEKLQSVCSDIFPHIDETYLMFWIGVTSVLLLFIVYAYMYILWKAHSHAVRMIQRGTQKSIIIHTSEDGKVQVTRPDQARMDIRLAKTLVLILVVLIICWGPLLAIMVYDVFGKMNKLIKTVFAFCSMLCLLNSTVNPIIYALRSKDLRHAFRSMFPSCEGTAQPLDNSMGDSDCLHKHANNAASVHRAAESCIKSTVKIAKVTMSVSTDTSAEAL
Specific Peptide Signal, Gq (Average) (PTH1R–Gq peptide): 0.10 | Specific Peptide Signal, Gs (Average) (PTH1R–Gs peptide): 0.53

B3: Nb6B9: nanobody that binds the receptor’s cytosolic cavity in the active state (antibody, V domains shown)
VH: QVQLQESGGGLVQAGGSLRLSCAASGSIFALNIMGWYRQAPGKQRELVAAIHSGGTTNYANSVKGRFTISRDNAANTVYLQMNSLKPEDTAVYYCNVKDFGAIIYDYDYWGQGTQVTVSS
effect on FRET efficiency of the ICL3 FRET sensor treated with isoproterenol [1]: quenched | effect on agonist-induced FRET of β2AR–G peptide sensor ([2]; wild-type β2AR–Gs peptide FRET sensor): significantly quenched FRET | effect on agonist-induced FRET of β2AR–G peptide sensor ([2]; β2AR(∆ICL3), Gs and Gq peptide sensors): quenched the interactions of both the Gs and Gq peptides with the receptor

B4: ADA1A (protein, UniProt P35348 1-466, looked up)
Alpha-1A adrenergic receptor: MVFLSGNASDSSNCTQPPAPVNISKAILLGVILGGLILFGVLGNILVILSVACHRHLHSVTHYYIVNLAVADLLLTSTVLPFSAIFEVLGYWAFGRVFCNIWAAVDVLCCTASIMGLCIISIDRYIGVSYPLRYPTIVTQRRGLMALLCVWALSLVISIGPLFGWRQPAPEDETICQINEEPGYVLFSALGSFYLPLAIILVMYCRVYVVAKRESRGLKSGLKTDKSDSEQVTLRIHRKNAPAGGSGMASAKTKTHFSVRLLKFSREKKAAKTLGIVVGCFVLCWLPFFLVMPIGSFFPDFKPSETVFKIVFWLGYLNSCINPIIYPCSSQEFKKAFQNVLRIQCLCRKQSSKHALGYTLHPPSQAVEGQHKDMVRIPVGSRETFYRISKTDGVCEWKFFSSMPRGSARITVSKDQSSCTTARVRSKSFLQVCCCVGPSTPSLDKNHQVPTIKVHTISLSENGEEV
Specific Peptide Signal, Gq (Average) (PTH1R–Gq peptide): 0.14 | Specific Peptide Signal, Gs (Average) (PTH1R–Gs peptide): 0.59

B5: DRD3 (protein, UniProt P35462 1-400, looked up)
D(3) dopamine receptor: MASLSQLSGHLNYTCGAENSTGASQARPHAYYALSYCALILAIVFGNGLVCMAVLKERALQTTTNYLVVSLAVADLLVATLVMPWVVYLEVTGGVWNFSRICCDVFVTLDVMMCTASILNLCAISIDRYTAVVMPVHYQHGTGQSSCRRVALMITAVWVLAFAVSCPLLFGFNTTGDPTVCSISNPDFVIYSSVVSFYLPFGVTVLVYARIYVVLKQRRRKRILTRQNSQCNSVRPGFPQQTLSPDPAHLELKRYYSICQDTALGGPGFQERGGELKREEKTRNSLSPTIAPKLSLEVRKLSNGRLSTSLKLGPLQPRGVPLREKKATQMVAIVLGAFIVCWLPFFLTHVLNTHCQTCHVSPELYSATTWLGYVNSALNPVIYTTFNIEFRKAFLKILSC
Specific Peptide Signal, Gq (Average) (PTH1R–Gq peptide): 0.08 | Specific Peptide Signal, Gs (Average) (PTH1R–Gs peptide): 0.72

B6: 5HT2C (protein, UniProt P28335 33-458, looked up)
5-hydroxytryptamine receptor …: IVTDIFNTSDGGRFKFPDGVQNWPALSIVIIIIMTIGGNILVIMAVSMEKKLHNATNYFLMSLAIADMLVGLLVMPLSLLAILYDYVWPLPRYLCPVWISLDVLFSTASIMHLCAISLDRYVAIRNPIEHSRFNSRTKAIMKIAIVWAISIGVSVPIPVIGLRDEEKVFVNNTTCVLNDPNFVLIGSFVAFFIPLTIMVITYCLTIYVLRRQALMLLHGHTEEPPGLSLDFLKCCKRNTAEEENSANPNQDQNARRRKKKERRPRGTMQAINNERKASKVLGIVFFVFLIMWCPFFITNILSVLCEKSCNQKLMEKLLNVFVWIGYVCSGINPLVYTLFNKIYRRAFSNYLRCNYKVEKKPPVRQIPRVAATALSGRELNVNIYRHTNEPVIEKASDNEPGIEMQVENLELPVNPSSVVSERISSV
Specific Peptide Signal, Gq (Average) (PTH1R–Gq peptide): -0.00493 | Specific Peptide Signal, Gs (Average) (PTH1R–Gs peptide): 0.48
